Measurements published in patent publication US20170298096A1 (CANIMGUIDE THERAPEUTICS, published 2017).
No end group written: not given here.

Biological target: T1, His-tagged P3028 (human, not fully specified)
T1 construct: the tag is put first after 'PGE73=His-tag-P3028'; also called PGE73; not shown: His-tag
T1 peptide: {His‑tag}-VFDEFKPLVEEPQNLIK
Experiment: chip ELISA

ELISA signal | Binder
346 | KKLDAFFVKLSLFTER [P28R T5A]
436 | KKLDNFFVKLSLFTER [P28R T5N]
374 | KKLDVFFVKLSLFTER [P28R T5V]
425 | KKLDYFFVKLSLFTER [P28R T5Y]
430 | KKLDRFFVKLSLFTER [P28R T5R]
305 | KKLDTFFVKLSLFAER [P28R T14A]
110 | KKLDTFFVKLSLFEER [P28R T14E]
369 | KKLDTFFVKLSLFSER [P28R T14S]
418 | KKLDWFFVKLSLFTER [P28R T5W]
360 | KKLDTFFVKLSLFLER [P28R T14L]
501 | KKLDTFFVKLSLFMER [P28R T14M]
458 | KKLDSFFVKLSLFTER [P28R T5S]
259 | KKLDTFFVKLSLFKER [P28R T14K]
599 | KKLDTFFVKLSLFNER [P28R T14N]
375 | KKLDTFFVKLSLFIER [P28R T14I]
159 | KKLDTFFVKLSLFDER [P28R T14D]
237 | KKLDKFFVKLSLFTER [P28R T5K]
264 | KKLDTFFVKLSLFRER [P28R T14R]
293 | KKLDIFFVKLSLFTER [P28R T5I]
391 | KKLDHFFVKLSLFTER [P28R T5H]
290 | KKLDFFFVKLSLFTER [P28R T5F]
295 | KKLDDFFVKLSLFTER [P28R T5D]
535 | KKLDQFFVKLSLFTER [P28R T5Q]
463 | KKLDTFFVKLSLFHER [P28R T14H]
348 | KKLDTFFVKLSLFFER [P28R T14F]
301 | KKLDTFFVKLSLFQER [P28R T14Q]
475 | KKLDMFFVKLSLFTER [P28R T5M]
311 | KKLDLFFVKLSLFTER [P28R T5L]
341 | KKLDEFFVKLSLFTER [P28R T5E]
